Experimental data reported in PMC9482650, “Quantitative fragmentomics allow affinity mapping of interactomes” (Nature Communications, 2022).

T1: DLG3_1, Q92796
T1 sequence (Q92796 125-227, limits assumed, looked up): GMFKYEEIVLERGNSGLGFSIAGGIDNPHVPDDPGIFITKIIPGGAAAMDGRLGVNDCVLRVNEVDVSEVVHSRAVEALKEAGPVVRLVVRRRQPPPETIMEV

T2: DLG3_2, Q92796
T2 sequence (Q92796 221-321, limits assumed, looked up): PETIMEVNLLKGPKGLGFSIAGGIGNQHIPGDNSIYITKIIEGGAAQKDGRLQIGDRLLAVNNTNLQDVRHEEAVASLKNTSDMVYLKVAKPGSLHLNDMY

T3: LIN7A, O14910
T3 sequence (O14910 103-200, limits assumed, looked up): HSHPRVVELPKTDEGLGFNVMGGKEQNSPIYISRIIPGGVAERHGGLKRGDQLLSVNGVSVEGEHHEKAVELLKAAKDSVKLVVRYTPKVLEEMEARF

T4: ARHGEF11, O15085
T4 sequence (O15085 42-136, limits assumed, looked up): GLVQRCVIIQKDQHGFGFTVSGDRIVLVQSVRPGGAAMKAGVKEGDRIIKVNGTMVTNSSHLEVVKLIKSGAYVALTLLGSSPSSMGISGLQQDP

T5: RADIL, Q96JH8
T5 sequence (Q96JH8 971-1071, limits assumed, looked up): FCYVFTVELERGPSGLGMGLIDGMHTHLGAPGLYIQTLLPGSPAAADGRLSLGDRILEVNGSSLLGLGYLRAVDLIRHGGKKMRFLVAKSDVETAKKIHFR

T6: SIPA1L2, Q9P2F8
T6 sequence (Q9P2F8 945-1036, limits assumed, looked up): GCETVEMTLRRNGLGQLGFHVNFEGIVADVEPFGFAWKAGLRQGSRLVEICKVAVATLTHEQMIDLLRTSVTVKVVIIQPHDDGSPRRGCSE

T7: MPP6, Q9NZW5
T7 sequence (Q9NZW5 125-219, limits assumed, looked up): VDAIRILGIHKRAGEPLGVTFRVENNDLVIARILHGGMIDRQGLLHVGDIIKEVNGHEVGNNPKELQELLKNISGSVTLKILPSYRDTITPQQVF

T8: GRIP1_5, Q9Y3R0
T8 sequence (Q9Y3R0 568-668, limits assumed, looked up): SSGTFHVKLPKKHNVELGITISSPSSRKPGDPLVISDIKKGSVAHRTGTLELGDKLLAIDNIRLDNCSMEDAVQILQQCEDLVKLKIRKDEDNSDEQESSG

T9: SHANK1, Q9Y566
T9 sequence (Q9Y566 658-767, limits assumed, looked up): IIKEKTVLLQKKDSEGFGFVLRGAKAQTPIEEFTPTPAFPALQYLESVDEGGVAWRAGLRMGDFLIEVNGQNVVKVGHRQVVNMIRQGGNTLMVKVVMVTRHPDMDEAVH

B1: CRB2, Q5IJ48 (peptide)
chain: LKVPPEERLI
B2: TMEM225B, P0DP42 (peptide)
chain: ETQVTAETVI

Target: T1, DLG3_1, Q92796
Test: holdup assay
Design: key: below the threshold = too weak to quantify, mostly under pKd 3.1 to 4
Details: plain residues with an end cap or a label only (N-terminal biotin on a linker: ado-ado)

Binder | pKd
B1 | below the threshold
B2 | below the threshold

Target: DLG1_1, Q12959
Test: holdup assay
Design: key: below the threshold = too weak to quantify, mostly under pKd 3.1 to 4
Details: plain residues with an end cap or a label only (N-terminal biotin on a linker: ado-ado)

Binder | pKd
B1 | below the threshold
B2 | 3.91

Target: T2, DLG3_2, Q92796
Test: holdup assay
Design: key: below the threshold = too weak to quantify, mostly under pKd 3.1 to 4
Details: plain residues with an end cap or a label only (N-terminal biotin on a linker: ado-ado)

Binder | pKd
B1 | below the threshold
B2 | 4.43

Target: MAGI2_2, Q86UL8
Sequence (Q86UL8 410-522): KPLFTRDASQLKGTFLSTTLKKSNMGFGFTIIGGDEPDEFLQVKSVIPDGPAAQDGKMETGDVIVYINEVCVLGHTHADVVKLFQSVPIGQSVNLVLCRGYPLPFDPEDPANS
Test: holdup assay
Design: key: below the threshold = too weak to quantify, mostly under pKd 3.1 to 4
Details: plain residues with an end cap or a label only (N-terminal biotin on a linker: ado-ado)

Binder | pKd
B1 | below the threshold
B2 | below the threshold

Target: SCRIB_3, Q14160
Sequence (Q14160 999-1103): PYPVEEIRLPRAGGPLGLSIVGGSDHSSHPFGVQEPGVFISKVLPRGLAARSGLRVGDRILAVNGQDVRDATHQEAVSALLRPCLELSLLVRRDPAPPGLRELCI
Test: holdup assay
Design: key: below the threshold = too weak to quantify, mostly under pKd 3.1 to 4
Details: plain residues with an end cap or a label only (N-terminal biotin on a linker: ado-ado)

Binder | pKd
B1 | 3.75
B2 | 4.34

Target: LDB3, O75112
Sequence (O75112 1-94): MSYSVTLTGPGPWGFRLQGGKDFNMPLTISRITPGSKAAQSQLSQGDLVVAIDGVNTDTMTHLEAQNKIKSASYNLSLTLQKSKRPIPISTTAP
Test: holdup assay
Design: key: below the threshold = too weak to quantify, mostly under pKd 3.1 to 4
Details: plain residues with an end cap or a label only (N-terminal biotin on a linker: ado-ado)

Binder | pKd
B1 | below the threshold
B2 | below the threshold

Target: T3, LIN7A, O14910
Test: holdup assay
Design: key: below the threshold = too weak to quantify, mostly under pKd 3.1 to 4
Details: plain residues with an end cap or a label only (N-terminal biotin on a linker: ado-ado)

Binder | pKd
B1 | below the threshold
B2 | below the threshold

Target: IL16_1, Q14005
Sequence (Q14005 210-306): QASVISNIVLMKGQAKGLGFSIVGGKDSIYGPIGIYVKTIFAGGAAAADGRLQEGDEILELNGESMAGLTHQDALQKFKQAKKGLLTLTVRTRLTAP
Test: holdup assay
Design: key: below the threshold = too weak to quantify, mostly under pKd 3.1 to 4
Details: plain residues with an end cap or a label only (N-terminal biotin on a linker: ado-ado)

Binder | pKd
B1 | below the threshold
B2 | below the threshold

Target: TJP1_2, Q07157
Sequence (Q07157 181-274): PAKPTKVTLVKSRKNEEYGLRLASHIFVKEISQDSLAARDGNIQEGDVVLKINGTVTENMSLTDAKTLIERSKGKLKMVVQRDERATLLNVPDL
Test: holdup assay
Design: key: below the threshold = too weak to quantify, mostly under pKd 3.1 to 4
Details: plain residues with an end cap or a label only (N-terminal biotin on a linker: ado-ado)

Binder | pKd
B1 | below the threshold
B2 | below the threshold

Target: GORASP2, Q9H8Y8
Test: holdup assay
Design: key: below the threshold = too weak to quantify, mostly under pKd 3.1 to 4
Details: plain residues with an end cap or a label only (N-terminal biotin on a linker: ado-ado)

Binder | pKd
B1 | 3.62
B2 | 3.57

Target: DLG1_3, Q12959
Test: holdup assay
Design: key: below the threshold = too weak to quantify, mostly under pKd 3.1 to 4
Details: plain residues with an end cap or a label only (N-terminal biotin on a linker: ado-ado)

Binder | pKd
B1 | below the threshold
B2 | below the threshold

Target: T4, ARHGEF11, O15085
Test: holdup assay
Design: key: below the threshold = too weak to quantify, mostly under pKd 3.1 to 4
Details: plain residues with an end cap or a label only (N-terminal biotin on a linker: ado-ado)

Binder | pKd
B1 | below the threshold
B2 | below the threshold

Target: T5, RADIL, Q96JH8
Test: holdup assay
Design: key: below the threshold = too weak to quantify, mostly under pKd 3.1 to 4
Details: plain residues with an end cap or a label only (N-terminal biotin on a linker: ado-ado)

Binder | pKd
B1 | below the threshold
B2 | below the threshold

Target: TJP2_1, Q9UDY2
Sequence (Q9UDY2 24-128): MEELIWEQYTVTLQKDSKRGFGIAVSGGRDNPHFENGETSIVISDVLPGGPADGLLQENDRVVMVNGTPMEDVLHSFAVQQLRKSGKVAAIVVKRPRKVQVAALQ
Test: holdup assay
Design: key: below the threshold = too weak to quantify, mostly under pKd 3.1 to 4
Details: plain residues with an end cap or a label only (N-terminal biotin on a linker: ado-ado)

Binder | pKd
B1 | below the threshold
B2 | below the threshold

Target: T6, SIPA1L2, Q9P2F8
Test: holdup assay
Design: key: below the threshold = too weak to quantify, mostly under pKd 3.1 to 4
Details: plain residues with an end cap or a label only (N-terminal biotin on a linker: ado-ado)

Binder | pKd
B1 | below the threshold
B2 | below the threshold

Target: MAGI1_2, Q96QZ7
Sequence (Q96QZ7 456-580): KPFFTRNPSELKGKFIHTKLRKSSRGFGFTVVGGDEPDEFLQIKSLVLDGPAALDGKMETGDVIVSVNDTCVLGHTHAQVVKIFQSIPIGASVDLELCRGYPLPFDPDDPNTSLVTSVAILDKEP
Test: holdup assay
Design: key: below the threshold = too weak to quantify, mostly under pKd 3.1 to 4
Details: plain residues with an end cap or a label only (N-terminal biotin on a linker: ado-ado)

Binder | pKd
B1 | below the threshold
B2 | below the threshold

Target: SCRIB_2, Q14160
Sequence (Q14160 857-960): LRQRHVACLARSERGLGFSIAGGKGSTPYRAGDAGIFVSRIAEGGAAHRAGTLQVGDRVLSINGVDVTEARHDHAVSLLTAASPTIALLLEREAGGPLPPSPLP
Test: holdup assay
Design: key: below the threshold = too weak to quantify, mostly under pKd 3.1 to 4
Details: plain residues with an end cap or a label only (N-terminal biotin on a linker: ado-ado)

Binder | pKd
B1 | below the threshold
B2 | below the threshold

Target: T7, MPP6, Q9NZW5
Test: holdup assay
Design: key: below the threshold = too weak to quantify, mostly under pKd 3.1 to 4
Details: plain residues with an end cap or a label only (N-terminal biotin on a linker: ado-ado)

Binder | pKd
B1 | 3.68
B2 | below the threshold

Target: AHNAK1, Q09666
Sequence (Q09666 4-100): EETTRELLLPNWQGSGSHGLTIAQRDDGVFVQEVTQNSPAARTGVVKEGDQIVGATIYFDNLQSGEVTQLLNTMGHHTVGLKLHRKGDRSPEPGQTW
Test: holdup assay
Design: key: below the threshold = too weak to quantify, mostly under pKd 3.1 to 4
Details: plain residues with an end cap or a label only (N-terminal biotin on a linker: ado-ado)

Binder | pKd
B1 | below the threshold
B2 | below the threshold

Target: PDLIM1, O00151
Sequence (O00151 1-87): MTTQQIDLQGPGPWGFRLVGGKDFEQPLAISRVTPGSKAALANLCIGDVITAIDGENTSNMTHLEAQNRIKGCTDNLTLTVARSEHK
Test: holdup assay
Design: key: below the threshold = too weak to quantify, mostly under pKd 3.1 to 4
Details: plain residues with an end cap or a label only (N-terminal biotin on a linker: ado-ado)

Binder | pKd
B1 | below the threshold
B2 | below the threshold

Target: FRMPD3, Q5JV73
Sequence (Q5JV73 12-100): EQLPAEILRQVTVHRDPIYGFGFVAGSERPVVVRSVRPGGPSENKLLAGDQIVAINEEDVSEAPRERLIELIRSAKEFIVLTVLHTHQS
Test: holdup assay
Design: key: below the threshold = too weak to quantify, mostly under pKd 3.1 to 4
Details: plain residues with an end cap or a label only (N-terminal biotin on a linker: ado-ado)

Binder | pKd
B1 | below the threshold
B2 | below the threshold

Target: DLG4_2, P78352
Sequence (P78352 155-259): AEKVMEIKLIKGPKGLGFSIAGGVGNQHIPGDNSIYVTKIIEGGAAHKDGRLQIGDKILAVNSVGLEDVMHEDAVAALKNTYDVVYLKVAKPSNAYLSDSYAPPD
Test: holdup assay
Design: key: below the threshold = too weak to quantify, mostly under pKd 3.1 to 4
Details: plain residues with an end cap or a label only (N-terminal biotin on a linker: ado-ado)

Binder | pKd
B1 | below the threshold
B2 | 4.05

Target: T8, GRIP1_5, Q9Y3R0
Test: holdup assay
Design: key: below the threshold = too weak to quantify, mostly under pKd 3.1 to 4
Details: plain residues with an end cap or a label only (N-terminal biotin on a linker: ado-ado)

Binder | pKd
B1 | below the threshold
B2 | below the threshold

Target: GOPC, Q9HD26
Test: holdup assay
Design: key: below the threshold = too weak to quantify, mostly under pKd 3.1 to 4
Details: plain residues with an end cap or a label only (N-terminal biotin on a linker: ado-ado)

Binder | pKd
B1 | below the threshold
B2 | below the threshold

Target: T9, SHANK1, Q9Y566
Test: holdup assay
Design: key: below the threshold = too weak to quantify, mostly under pKd 3.1 to 4
Details: plain residues with an end cap or a label only (N-terminal biotin on a linker: ado-ado)

Binder | pKd
B1 | below the threshold
B2 | below the threshold

Target: DLG4_3, P78352
Sequence (P78352 306-403): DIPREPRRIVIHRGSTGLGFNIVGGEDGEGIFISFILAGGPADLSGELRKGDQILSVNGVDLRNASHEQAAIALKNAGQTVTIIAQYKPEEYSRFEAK
Test: holdup assay
Design: key: below the threshold = too weak to quantify, mostly under pKd 3.1 to 4
Details: plain residues with an end cap or a label only (N-terminal biotin on a linker: ado-ado)

Binder | pKd
B1 | below the threshold
B2 | below the threshold

Target: MAGI3_2, Q5TCQ9
Sequence (Q5TCQ9 398-503): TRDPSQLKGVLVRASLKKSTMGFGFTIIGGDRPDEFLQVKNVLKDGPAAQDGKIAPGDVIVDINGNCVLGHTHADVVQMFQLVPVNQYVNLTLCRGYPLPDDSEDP
Test: holdup assay
Design: key: below the threshold = too weak to quantify, mostly under pKd 3.1 to 4
Details: plain residues with an end cap or a label only (N-terminal biotin on a linker: ado-ado)

Binder | pKd
B1 | below the threshold
B2 | 3.79

Target: GRASP, Q7Z6J2
Sequence (Q7Z6J2 96-193): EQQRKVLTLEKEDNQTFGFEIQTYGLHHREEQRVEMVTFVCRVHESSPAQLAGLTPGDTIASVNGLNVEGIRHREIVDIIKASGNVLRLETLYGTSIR
Test: holdup assay
Design: key: below the threshold = too weak to quantify, mostly under pKd 3.1 to 4
Details: plain residues with an end cap or a label only (N-terminal biotin on a linker: ado-ado)

Binder | pKd
B1 | below the threshold
B2 | below the threshold
